Measured values published in PMC8944080, “Production of indole by Corynebacterium glutamicum microbial cell factories for flavor and fragrance applications” (Microbial Cell Factories, 2022).

Tests used:
[1] = tested on: N[C@@H](Cc1c[nH]c2ccccc12)C(=O)O; experiment: purified protein; conditions: 100 mM KPi pH 7.8, 30 °C, 0.05 mM pyridoxal phosphate, 1 mM DTT
[2] = tested on: T1, N[C@@H](Cc1c[nH]c2ccccc12)C(=O)O; experiment: purified protein; format: biochemical, Proteus vulgaris; conditions: 100 mM KPi pH 7.8, 30 °C, 0.05 mM pyridoxal phosphate, 1 mM DTT
T1 construct: full length, N-terminal 6xHis tag, codon-optimised gene, pACYCDuet-1, E. coli BL21(DE3), Ni-NTA; TNAs are homotetramers

Substance | Km [1] | kcat [1] | kcat/Km [1] | Km [2] | kcat [2] | kcat/Km [2]
EcTNA (Escherichia coli K-12) | 140 ± 10 µM | 1.65 s⁻¹ | 11800 M⁻¹ s⁻¹ |  |  | 
PvTNA (Proteus vulgaris) |  |  |  | 30 ± 3 µM | 0.78 ± 0.02 s⁻¹ | 26000 ± 5800 M⁻¹ s⁻¹
